Target: recombinant PP5 (UniProt P53041)
Sequence (P53041 whole entry): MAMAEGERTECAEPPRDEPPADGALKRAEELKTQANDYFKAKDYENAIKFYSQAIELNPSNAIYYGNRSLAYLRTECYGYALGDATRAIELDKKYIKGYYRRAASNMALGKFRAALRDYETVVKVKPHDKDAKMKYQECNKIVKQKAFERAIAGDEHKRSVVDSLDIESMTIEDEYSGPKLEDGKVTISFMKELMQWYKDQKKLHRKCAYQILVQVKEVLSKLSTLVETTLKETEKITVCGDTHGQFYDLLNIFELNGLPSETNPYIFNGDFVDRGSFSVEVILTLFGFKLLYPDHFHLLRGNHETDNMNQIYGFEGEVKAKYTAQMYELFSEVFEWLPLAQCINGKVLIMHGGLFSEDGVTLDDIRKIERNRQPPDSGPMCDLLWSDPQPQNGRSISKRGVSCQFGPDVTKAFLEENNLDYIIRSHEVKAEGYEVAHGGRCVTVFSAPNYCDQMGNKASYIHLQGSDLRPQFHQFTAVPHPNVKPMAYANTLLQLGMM

| Substance | in vitro ubiquitylation of PP5 (immunoblot for PP5) |
| --- | --- |
| recombinant Huwe1 C4341S mutant (Huwe1 C/S) | wild type recombinant Huwe1 protein, but not Huwe1(C/S), ubiquitylated recombinant PP5 in vitro |
| recombinant Huwe1 wild type | in the presence of both E1 and E2, wild type recombinant Huwe1 protein, but not Huwe1(C/S), ubiquitylated recombinant PP5 in vitro |
